We go through nine molecules from patent US20170198040A1 (Novartis, published 2017).

In assay [1] the target is T1, huCD64 (Fc gamma RI) expressed on stable CHO cells (human, UniProt P12314 16-374).
T1 construct: whole, on cells; also called CHO-huCD64
The assay is described as follows: flow cytometry on stable CHO cells expressing huCD64; hIgG1 [N297A] antibody, GMFI; the text ascribes this binding to the Fc portion. On the procedure: (§1) The binding of huCD32b specific antibodies was evaluated by flow cytometry using stable CHO cell lines expressing the low affinity human CD16 variants (i.e huCD16a or huCD16b variants) and the high affinity huCD64 (FcγRI). CHO cells transfected with huCD16a variants were also transfected with the common Fcγ chain in order to allow for surface expression. CHO cells were collected following detachment with PBS containing 2 mM EDTA and pelleted. Cell pellets were washed once in PBS and suspended in FACS Buffer (PBS1× containing 2% BSA, 2 mM EDTA and 0.1% NaN3), counted and suspended at 0.25×10⁶ cells per ml. 50'000 cells/well (200 μl) were then dispensed in V-bottomed 96 well plates. Plates were spun for 5 min at 1600 rpm and the supernatant discarded. […] After 3 successive washes with FACS buffer, cells were suspended in 50 μl FACS buffer containing a 1/100 dilution of the F(ab′)2 anti-human F(ab′)2-PE (Jackson Immunoresearch#109-116-097) and further incubated 30 min at 4° C. Cells were washed twice and suspended in 200 μl FACS buffer and acquired on a FACS Canto II (acquisition of 5000 cells in the live cell gate). The Geometric Mean Fluorescence (GMFI in the PE channel) was used as a measure of the binding intensity of each antibody.
(In general: Flow cytometry measures light scatter and fluorescence of single cells or particles in a stream.)

Assay [2] deals with T2, human CD32b expressed endogenously on human cells (human, UniProt P31994 43-310).
T2 construct: whole, on cells; The background says that CD32b1 is the form on lymphoid cells and CD32b2 the form on myeloid cells; also called CD32b on primary human B cells, plasma cells, macrophages, BJAB, KARPAS422 and Daudi cells
T2 sequence (looked up): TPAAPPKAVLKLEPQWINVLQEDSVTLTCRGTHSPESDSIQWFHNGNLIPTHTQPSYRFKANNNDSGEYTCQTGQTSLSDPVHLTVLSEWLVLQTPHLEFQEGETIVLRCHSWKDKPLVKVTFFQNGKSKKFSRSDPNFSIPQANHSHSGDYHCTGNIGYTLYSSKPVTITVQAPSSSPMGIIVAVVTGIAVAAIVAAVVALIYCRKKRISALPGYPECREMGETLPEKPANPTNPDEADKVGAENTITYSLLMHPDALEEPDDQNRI
As to the kind of experiment: flow cytometry on BJAB cells; biotinylated hIgG1 [N297A] antibody, streptavidin-PE, GMFI. On the procedure:
The binding of huCD32b specific antibodies to the BJAB cell line was evaluated by flow cytometry. BJAB cells were collected and suspended in FACS Buffer (PBS1× containing 2% BSA, 2 mM EDTA), counted and suspended at 0.25×10⁶ cells per ml. 50'000 cells/well (200 μl) were then dispensed in V-bottomed 96 well plates. Plates were spun for 5 min at 1500 rpm and the supernatant discarded. […] Biotinylation of antibodies was performed using the Lightning-Link biotin conjugation kit (Type A) from Innova Biosciences (Cat. No 704-0010) according to the supplier's instructions. After 2 successive washes with FACS buffer, cells were suspended in 50 μl FACS buffer containing a 1/500 dilution of Streptavidin-PE (Invitrogen 521388) and further incubated for 20 min at 4° C. Cells were washed twice and suspended in 200 μl FACS buffer and acquired on a FACS Fortessa. The Geometric Mean Fluorescence (GMFI in the PE channel) was used as a measure of the binding intensity of each antibody.

A further assay has as its target T3, MW82 (huCD32a H131) (human, UniProt P12318).
T3 sequence (receptor, looked up): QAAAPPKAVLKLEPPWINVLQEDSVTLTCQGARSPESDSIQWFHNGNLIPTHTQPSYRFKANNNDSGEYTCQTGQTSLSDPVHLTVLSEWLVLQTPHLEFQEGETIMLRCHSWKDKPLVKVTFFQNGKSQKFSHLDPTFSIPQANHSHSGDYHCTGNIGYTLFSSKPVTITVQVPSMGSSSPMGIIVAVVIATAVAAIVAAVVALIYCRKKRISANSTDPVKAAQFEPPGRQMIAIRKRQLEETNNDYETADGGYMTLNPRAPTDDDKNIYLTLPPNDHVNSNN
The assay is described as follows: flow cytometry on stable CHO cells expressing huCD32a H131 (MW82); hIgG1 [N297A] antibody, GMFI. On the procedure: as §1, with “HuCD32b and huCD32a have high degree” for “The binding”, “sequence homology. […]” for “huCD32b specific antibodies was evaluated by flow cytometry using stable CHO cell lines expressing the low affinity human CD16 variants (i.e huCD16a or huCD16b variants) and the high affinity huCD64 (FcγRI). CHO cells transfected with huCD16a variants were also transfected with the common Fcγ chain in order to allow for surface expression.”

Assay [3] deals with T4, WT human CD32b1 expressed on stably transfected cells (human, UniProt P31994 43-310).
T4 construct: also called huCD32b; WT CD32b
T4 sequence: T2 sequence (looked up)
As to the kind of experiment: flow cytometry on stable CHO cells expressing huCD32b (MW83); hIgG1 [N297A] antibody, GMFI. The procedure: as §1, with “HuCD32b and huCD32a have high degree” for “The binding”, “sequence homology. […]” for “huCD32b specific antibodies was evaluated by flow cytometry using stable CHO cell lines expressing the low affinity human CD16 variants (i.e huCD16a or huCD16b variants) and the high affinity huCD64 (FcγRI). CHO cells transfected with huCD16a variants were also transfected with the common Fcγ chain in order to allow for surface expression.”

Assay [4] deals with T2, human CD32b expressed endogenously on …. As to the kind of experiment: flow cytometry titration (GMFI), biotinylated IgG1 [N297A] on purified primary human B cells, CD20+ gate. The procedure: Plates were spun for 5 min at 1500 rpm and the supernatant discarded. […] Biotinylation of antibodies was performed using the Lightning-Link biotin conjugation kit (Type A) from Innova Biosciences (Cat. No 704-0010) according to the supplier's instructions. […] Cells were washed twice and suspended in 200 μl FACS buffer and acquired on a FACS Fortessa.

The target in assay [5] is T5, huCD32b-deglyco (human, UniProt P31994 43-222, limits assumed, deglycosylated (deglyco) (so in the source)).
T5 construct: Soluble analyte of the SPR assay; also called huCD32b receptor (SPR analyte); human CD32b
T5 sequence: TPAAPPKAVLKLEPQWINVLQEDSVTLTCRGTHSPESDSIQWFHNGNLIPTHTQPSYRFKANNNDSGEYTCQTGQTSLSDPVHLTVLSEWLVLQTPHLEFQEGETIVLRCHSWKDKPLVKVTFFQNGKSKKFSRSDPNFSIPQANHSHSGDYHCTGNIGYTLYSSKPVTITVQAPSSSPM
As to the kind of experiment: SPR (Biacore T200), IgG amine-coupled on the chip, huCD32b-deglyco analyte 0.61-5000 nM, 1:1 binding model; single experiment. The procedure: (§2) Three independent direct binding assays with IgGs covalently immobilized on the biosensor and huCD32b receptor serving as analyte were performed to determine the binding affinities of the IgGs for huCD32b. Kinetic data were acquired by subsequent injections of analyte dilution series on all flow cells. Flow cell 1 (chip 1) served as a reference.
(§3) A dilution series of huCD32b-deglyco, 0.61-5000 nM (1:2 dilution series) in running buffer was injected over the surface (flow rate: 30 μl/min, association time: 60 sec, dissociation time: 120 sec). The chip surface was regenerated with one basic wash step before each analyte injection (30 μl/min; contact time: 30 sec, stabilization period: 250 sec). Data were evaluated using the Biacore T200 evaluation software version 1.0. The raw data were double referenced, i.e. the response of the measuring flow cell was corrected for the response of the reference flow cell, and in a second step the response of a blank injection was subtracted. Outlier sensorgrams were removed if necessary. The sensorgrams were fitted by applying a 1:1 binding model to calculate kinetic rate constants and dissociation equilibrium constants. Rmax was set at global whereas RI was fitted locally. Data were processed individually for each run. The generated values were used to calculate average values and standard deviations of the respective kinetic constants.
In general terms: In SPR one partner is held on a chip, and binding of the other changes the refractive index at the surface.

The target of assay [6] is T4, WT human CD32b1 expressed on stably …. As to the kind of experiment: flow cytometry, Alexa-647 labelled hIgG1 [N297A] antibody, ΔMFI; stable BJAB cells expressing huCD32b.
In assay [7] the target is T5, huCD32b-deglyco. As to the kind of experiment: SPR (Biacore T200), IgG amine-coupled on the chip, huCD32b-deglyco analyte 0.61-5000 nM, 1:1 binding model; mean and standard deviation of the runs. The procedure: as §2, §3

T1 sequence (P12314 16-374): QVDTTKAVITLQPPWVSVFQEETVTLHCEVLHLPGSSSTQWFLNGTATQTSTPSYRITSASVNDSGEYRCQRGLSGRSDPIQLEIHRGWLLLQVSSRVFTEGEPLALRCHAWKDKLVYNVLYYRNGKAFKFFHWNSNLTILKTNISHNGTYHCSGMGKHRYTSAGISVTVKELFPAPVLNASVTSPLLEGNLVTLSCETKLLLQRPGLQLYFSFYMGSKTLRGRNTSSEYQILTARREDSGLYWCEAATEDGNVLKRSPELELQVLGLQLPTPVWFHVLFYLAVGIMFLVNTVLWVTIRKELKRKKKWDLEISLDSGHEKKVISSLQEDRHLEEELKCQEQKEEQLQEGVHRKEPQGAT

B1: NOV1218 (antibody, human IgG1, lambda, N297A)
heavy chain: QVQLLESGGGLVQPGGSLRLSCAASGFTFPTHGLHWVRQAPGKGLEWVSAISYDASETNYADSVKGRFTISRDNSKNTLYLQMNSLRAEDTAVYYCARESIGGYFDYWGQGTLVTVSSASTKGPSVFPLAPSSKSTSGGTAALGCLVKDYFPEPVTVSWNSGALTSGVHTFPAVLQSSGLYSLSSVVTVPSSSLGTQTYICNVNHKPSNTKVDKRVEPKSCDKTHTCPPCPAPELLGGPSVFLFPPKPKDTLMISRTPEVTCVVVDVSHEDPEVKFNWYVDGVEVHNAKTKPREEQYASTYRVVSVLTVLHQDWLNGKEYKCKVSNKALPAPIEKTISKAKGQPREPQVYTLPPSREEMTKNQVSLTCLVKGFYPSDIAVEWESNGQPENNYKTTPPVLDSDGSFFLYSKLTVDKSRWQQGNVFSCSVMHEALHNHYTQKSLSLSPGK
light chain: SYELTQPLSVSVALGQTARITCSGDALGKNTVSWYQQKPGQAPVLVIYDDTDRPSGIPERFSGSNSGNTATLTISRAQAGDEADYYCSSTDLSTVVFGGGTKLTVLGQPKAAPSVTLFPPSSEELQANKATLVCLISDFYPGAVTVAWKADSSPVKAGVETTTPSKQSNNKYAASSYLSLTPEQWKSHRSYSCQVTHEGSTVEKTVAPTECS
notes: also called NOV1218_N297A; NOV1218 N297A
On to B1, for which the binding result (in assay [1]; with MW82 (huCD32a H131)) was “binds” each time. Also, the “binding affinity (printed 'BJABs:')” value in assay [2] turned out to be 19 nM.

B2: NOV1219 (antibody, human IgG1, lambda, N297A)
heavy chain: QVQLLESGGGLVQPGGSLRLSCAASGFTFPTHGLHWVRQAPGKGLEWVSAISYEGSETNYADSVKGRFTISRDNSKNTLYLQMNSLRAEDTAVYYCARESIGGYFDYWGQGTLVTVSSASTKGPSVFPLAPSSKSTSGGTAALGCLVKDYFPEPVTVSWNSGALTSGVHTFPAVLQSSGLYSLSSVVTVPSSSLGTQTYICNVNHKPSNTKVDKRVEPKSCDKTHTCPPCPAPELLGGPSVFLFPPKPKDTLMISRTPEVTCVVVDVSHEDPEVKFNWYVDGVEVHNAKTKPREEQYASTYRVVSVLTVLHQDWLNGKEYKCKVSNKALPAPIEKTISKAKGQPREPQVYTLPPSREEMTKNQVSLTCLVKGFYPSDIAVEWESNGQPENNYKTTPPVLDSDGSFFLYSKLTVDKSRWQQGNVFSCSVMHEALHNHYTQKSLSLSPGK
light chain: B1 light chain
notes: also called NOV1219_N297A; NOV1219 on a human IgG1 [N297A] scaffold
Consider B2, for which the binding result in assay [1] is listed as “binds”; in the assay with MW82 (huCD32a H131) it was “no binding (tested: 1000 nM)”. Besides, in assay [2], the “binding affinity (printed 'BJABs:')” value was found to be 110 nM. Further, the 50% effective concentration (EC50 (read off the curve)) in assay [3] was approximately 30 nM.

B3: NOV1216_N297A (antibody, human IgG1, lambda, N297A)
heavy: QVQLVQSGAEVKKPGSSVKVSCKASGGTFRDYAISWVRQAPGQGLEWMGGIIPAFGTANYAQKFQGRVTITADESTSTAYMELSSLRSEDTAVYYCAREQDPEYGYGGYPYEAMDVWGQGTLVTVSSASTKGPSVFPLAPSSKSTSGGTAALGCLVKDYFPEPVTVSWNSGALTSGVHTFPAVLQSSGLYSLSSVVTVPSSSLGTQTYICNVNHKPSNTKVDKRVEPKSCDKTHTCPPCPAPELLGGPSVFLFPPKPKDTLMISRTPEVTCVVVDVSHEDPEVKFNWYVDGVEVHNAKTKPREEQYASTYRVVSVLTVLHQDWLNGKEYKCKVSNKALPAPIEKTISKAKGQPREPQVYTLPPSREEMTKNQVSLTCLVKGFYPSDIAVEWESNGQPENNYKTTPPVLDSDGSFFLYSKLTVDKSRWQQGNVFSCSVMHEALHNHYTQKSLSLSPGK
light: SYELTQPLSVSVALGQTARITCSGDNIPQHSVHWYQQKPGQAPVLVIYDDTERPSGIPERFSGSNSGNTATLTISRAQAGDEADYYCSSWDSSMDSVVFGGGTKLTVLGQPKAAPSVTLFPPSSEELQANKATLVCLISDFYPGAVTVAWKADSSPVKAGVETTTPSKQSNNKYAASSYLSLTPEQWKSHRSYSCQVTHEGSTVEKTVAPTECS
notes: Human IgG1 with N297A (Fc silent); also called Fc silent NOV1216
B3 registered a binding affinity in assay [4] of 1.4 nM. The binding result in assay [1] is listed as “binds”. Further, the “binding affinity (printed 'BJABs:')” value in assay [2] turned out to be 0.7 nM.

B4: afucosylated NOV2108 (antibody, human IgG1, lambda)
heavy: not shown
light: B3 light
modifications: afucosylated: N-glycan structure lacking core fucose
notes: also called NOV2108, afucosylated antibody; NOV2108 (afucosylated format)
In the assay with huCD32b-deglyco [5], B4 gave an equilibrium dissociation constant (Kd) of 16 nM, an off-rate (koff) of 0.11 s⁻¹ and a kon of 6.8e+06 M⁻¹ s⁻¹.

B5: NOV2107_N297A (antibody, human IgG1, lambda, N297A)
heavy: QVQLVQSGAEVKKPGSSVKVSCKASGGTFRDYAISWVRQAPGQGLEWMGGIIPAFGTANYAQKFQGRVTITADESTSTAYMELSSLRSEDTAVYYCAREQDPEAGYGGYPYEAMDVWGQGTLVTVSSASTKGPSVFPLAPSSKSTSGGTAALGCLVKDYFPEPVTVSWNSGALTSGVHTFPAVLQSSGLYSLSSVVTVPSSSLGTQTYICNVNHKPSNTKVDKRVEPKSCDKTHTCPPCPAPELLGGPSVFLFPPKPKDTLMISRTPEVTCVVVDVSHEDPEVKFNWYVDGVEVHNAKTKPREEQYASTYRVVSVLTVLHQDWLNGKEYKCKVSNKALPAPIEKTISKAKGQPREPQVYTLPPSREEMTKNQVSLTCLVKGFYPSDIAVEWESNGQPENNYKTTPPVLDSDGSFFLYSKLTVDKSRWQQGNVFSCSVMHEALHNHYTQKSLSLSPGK
light: B3 light
notes: CDR-H3 mutant of NOV1216; human IgG1 with N297A; also called Fc silent N297A variant of NOV2107
For the molecule B5, the binding result in assay [6] was “binds”.

B6: NOV2108_N297A (antibody, human IgG1, lambda, N297A)
heavy: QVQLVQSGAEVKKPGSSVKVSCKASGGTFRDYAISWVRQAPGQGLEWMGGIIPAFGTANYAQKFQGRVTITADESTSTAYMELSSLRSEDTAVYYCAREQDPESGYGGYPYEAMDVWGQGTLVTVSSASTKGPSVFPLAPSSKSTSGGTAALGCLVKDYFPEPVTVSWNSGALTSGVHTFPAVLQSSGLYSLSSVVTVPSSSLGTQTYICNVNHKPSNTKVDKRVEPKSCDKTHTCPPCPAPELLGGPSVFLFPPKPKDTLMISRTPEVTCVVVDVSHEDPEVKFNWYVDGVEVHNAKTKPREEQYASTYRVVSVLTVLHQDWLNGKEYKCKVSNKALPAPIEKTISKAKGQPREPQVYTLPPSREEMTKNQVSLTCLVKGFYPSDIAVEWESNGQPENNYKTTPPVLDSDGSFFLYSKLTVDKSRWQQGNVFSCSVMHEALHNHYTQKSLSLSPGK
light: B3 light
notes: CDR-H3 mutant of NOV1216; human IgG1 with N297A; Alexa Fluor 647-labelled in flow cytometry; also called Fc silent NOV2108 [N297A]
In the assay with huCD32b-deglyco [7], B6 displayed a Kd of 18 nM, an off-rate constant (koff) of 0.29 s⁻¹ and a kon of 1.5e+07 M⁻¹ s⁻¹.

B7: NOV2112 N297A (antibody, human IgG1, lambda, N297A)
heavy chain: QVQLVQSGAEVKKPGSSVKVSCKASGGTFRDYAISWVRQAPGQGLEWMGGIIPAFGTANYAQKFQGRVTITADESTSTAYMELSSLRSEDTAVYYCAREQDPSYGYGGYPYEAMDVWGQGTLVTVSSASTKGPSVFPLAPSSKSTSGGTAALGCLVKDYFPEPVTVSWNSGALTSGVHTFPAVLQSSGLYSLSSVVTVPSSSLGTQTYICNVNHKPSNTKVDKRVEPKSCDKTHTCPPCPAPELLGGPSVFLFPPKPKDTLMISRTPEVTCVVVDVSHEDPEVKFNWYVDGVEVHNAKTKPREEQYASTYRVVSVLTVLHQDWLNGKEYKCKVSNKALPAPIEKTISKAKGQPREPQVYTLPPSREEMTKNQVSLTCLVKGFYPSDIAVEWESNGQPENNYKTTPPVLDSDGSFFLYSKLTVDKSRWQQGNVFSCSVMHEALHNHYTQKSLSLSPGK
light chain: B3 light
Turning to B7, in assay [6], the binding result is listed as “binds”.

B8: NOV0308_N297A (antibody, human IgG1, lambda, N297A)
heavy: not shown
light: DIELTQPPSVSVSPGQTASITCSGDNLGSKYVHWYQQKPGQAPVLVIYDDNKRPSGIPERFSGSNSGNTATLTISGTQAEDEADYYCQSWTLGNWVFGGGTKLTVLGQPKAAPSVTLFPPSSEELQANKATLVCLISDFYPGAVTVAWKADSSPVKAGVETTTPSKQSNNKYAASSYLSLTPEQWKSHRSYSCQVTHEGSTVEKTVAPTECS
notes: also called NOV0308 on a human IgG1 [N297A] scaffold
Regarding B8, the binding result in assay [1] is recorded as “binds”. Besides, the “binding affinity (printed 'BJABs:')” value in assay [2] was 4.2 nM.

B9: NOV0281_N297A (antibody, human IgG1, lambda, N297A)
heavy: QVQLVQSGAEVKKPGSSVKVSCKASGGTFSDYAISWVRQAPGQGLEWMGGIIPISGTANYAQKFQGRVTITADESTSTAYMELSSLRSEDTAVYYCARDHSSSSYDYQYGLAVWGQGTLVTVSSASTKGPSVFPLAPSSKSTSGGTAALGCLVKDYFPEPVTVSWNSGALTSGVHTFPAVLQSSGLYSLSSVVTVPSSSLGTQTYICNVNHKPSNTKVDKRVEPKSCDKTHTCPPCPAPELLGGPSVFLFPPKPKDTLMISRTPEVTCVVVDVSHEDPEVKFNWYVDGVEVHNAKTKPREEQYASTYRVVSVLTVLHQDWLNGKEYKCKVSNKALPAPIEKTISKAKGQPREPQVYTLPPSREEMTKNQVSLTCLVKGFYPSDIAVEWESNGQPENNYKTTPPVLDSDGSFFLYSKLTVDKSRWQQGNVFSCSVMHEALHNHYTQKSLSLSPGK
light: DIELTQPPSVSVSPGETASITCSGDKLGDYYVHWYQQKPGQAPVLVIYQDSKRPSGIPERFSGSNSGNTATLTISGTQAEDEADYYCGATDLSPWSIVFGGGTKLTVLGQPKAAPSVTLFPPSSEELQANKATLVCLISDFYPGAVTVAWKADSSPVKAGVETTTPSKQSNNKYAASSYLSLTPEQWKSHRSYSCQVTHEGSTVEKTVAPTECS
notes: also called NOV0281 on a human IgG1 [N297A] scaffold
In assay [4], B9 gave a binding affinity of 5.4 nM. Moreover, the binding result (in assay [1]; with MW82 (huCD32a H131)) was “binds” throughout. Moreover, in assay [2], the “binding affinity (printed 'BJABs:')” value turned out to be 2.4 nM.

The term EC50 (read off the curve) denotes the concentration giving half of the maximal effect. Low readings indicate greater potency, high ones weaker potency. A word on the Kd: it is the concentration at which binding is half-saturated. Low readings indicate tighter binding, high ones weaker binding. Broadly, the koff is the first-order rate constant of dissociation. Lower therefore signals a long-lived complex. In general, kon refers to the second-order rate constant of association. Read a high kon as fast association.
